Article PMC6396125 (ACS Omega, 2019)
Values joined by “and” are separate entries in the source; they are usually repeats but may differ in a detail not shown here. Identical values can stand only once. Like-named read-outs stand apart in the source and are kept apart here. Ends that are not written are not given here.

Key:
L. lactis OppA = target: T1, L. lactis OppA (Lactococcus lactis subsp. lactis, UniProt Q07741); assay: Fluorescence anisotropy competition binding assay
T1 sequence (Q07741 35-600 limits assumed): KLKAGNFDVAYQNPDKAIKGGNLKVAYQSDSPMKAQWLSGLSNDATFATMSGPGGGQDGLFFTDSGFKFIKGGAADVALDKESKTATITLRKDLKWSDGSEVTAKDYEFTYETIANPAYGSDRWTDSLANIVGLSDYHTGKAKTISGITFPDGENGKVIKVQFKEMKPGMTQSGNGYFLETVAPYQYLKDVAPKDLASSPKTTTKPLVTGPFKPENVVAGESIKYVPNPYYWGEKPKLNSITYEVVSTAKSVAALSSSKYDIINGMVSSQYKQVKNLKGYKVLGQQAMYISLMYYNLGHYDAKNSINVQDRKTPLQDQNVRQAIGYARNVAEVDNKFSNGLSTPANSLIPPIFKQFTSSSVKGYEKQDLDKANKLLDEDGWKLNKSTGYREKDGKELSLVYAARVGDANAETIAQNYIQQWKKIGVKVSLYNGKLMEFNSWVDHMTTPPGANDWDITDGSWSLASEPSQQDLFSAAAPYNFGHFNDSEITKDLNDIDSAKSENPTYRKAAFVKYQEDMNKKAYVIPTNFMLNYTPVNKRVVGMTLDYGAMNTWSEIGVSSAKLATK

[1] = target: bradykinin labeled with sulforhodamine 101 on the C-terminus; assay: fluorescence polarisation
[2] = target: Lactococcus lactis oligopeptide-binding protein A (OppA) (Lactococcus lactis subspecies cremoris MG1363); assay: fluorescence polarisation
[3] = target: Lactococcus lactis oligopeptide-binding protein A (OppA) (Lactococcus lactis subspecies cremoris MG1363); assay: fluorescence polarisation; remark: listed apart in the source
[4] = target: Lactococcus lactis oligopeptide-binding protein A (OppA) (Lactococcus lactis subspecies cremoris MG1363); assay: fluorescence polarisation; remark: listed apart in the source
[5] = target: Lactococcus lactis oligopeptide-binding protein A (OppA) (Lactococcus lactis subspecies cremoris MG1363); assay: fluorescence polarisation; remark: listed apart in the source

Row | Compound | IC50 [3] [µM] | Kd [3] [µM] | Kd (L. lactis OppA) [µM] | also measured
1 | CC[C@H](C)[C@H](NC(=O)[C@H](CCCNC(=N)N)NC(=O)[C@H](CCCNC(=N)N)NC(=O)[C@H](CC(C)C)NC(=O)[C@H](Cc1ccccc1)NC(=O)CNC(=O)CNC(=O)[C@@H](N)Cc1ccc(O)cc1)C(=O)N[C@@H](CCCNC(=N)N)C(=O)N1CCC[C@H]1C(=O)N[C@@H](CCCCN)C(=O)N[C@@H](CC(C)C)C(=O)N[C@@H](CCCCN)C(=O)N[C@@H](Cc1c[nH]c2ccccc12)C(=O)N[C@@H](CC(=O)O)C(=O)N[C@@H](CC(N)=O)C(=O)N[C@@H](CCC(N)=O)C(=O)O [dynorphin-A (1–17)] | – | – | 3.3 ± 0.6 | –
2 | Lactococcus lactis oligopeptide-binding protein A (OppA) (natural protein) | – | – | – | Kd [1]: 22.9 µM and 15.4 µM
3 | SFRNGVGSGVKKTSFRRAKQ [neuropeptide S] | – | – | – | IC50 from competition binding assay (L. lactis OppA; pH 6, 30 °C, vs prebound bradykinin-SR101 (1 μM) + OppA (15 μM) mixture, at least 1 h, mean ± SD, n = 3): no fit
4 | SLSQSKVLPVPQ [casein-derived peptide] | – | – | 0.2 ± 0.01 | –
5 | YGGFLRRIR [dynorphin-A (1–9)] | – | – | 13.3 ± 0.7 | –
6 | leu-enkephalin (peptide) | 2000 | – | – | –
7 | neuropeptide S | – | 1800 | – | –

Continued, in another order:

Row | IC50 [3] [µM] | Kd [3] [µM] | Compound | Kd (L. lactis OppA) [µM] | also measured
8 | 5.2 | 0.13 | bradykinin (peptide) | – | Kd [2]: 0.4 µM; IC50 [4]: 5.1 µM and 5.3 µM and 5.6 µM; Kd [4]: < 0.1 µM and 0.31 µM; Kd [5]: 0.2 µM and 0.36 µM and 0.7 µM
9 | 34.2 | 13.3 | dynorphin-A (1–9) (peptide) | – | –
10 | 11 | 3.3 | dynorphin-A (1–17) (peptide) | – | –
